Experiments:
[1] = target: T1, Full length recombinant HBcAg (rHBcAg) encompassing residues 1-183 (hepatitis B virus, UniProt P03146 1-183); assay: competition EIA, HBcAg coated 1 ug/ml, peptide 6.25 ug/ml before mAb 4-2 (competitor); OD of bound mAb
T1 construct: range 1-183; also called hepatitis B virus core antigen

[2] = target: T1, Full length recombinant HBcAg (rHBcAg) …; assay: competition EIA, HBcAg coated 1 ug/ml, peptide 12.5 ug/ml before mAb 4-2 (competitor); OD of bound mAb
[3] = target: T1, Full length recombinant HBcAg (rHBcAg) …; assay: competition EIA, HBcAg coated 1 ug/ml, peptide 100 ug/ml before mAb 4-2 (competitor); OD of bound mAb
[4] = target: T1, Full length recombinant HBcAg (rHBcAg) …; assay: EIA, peptide coated 50 ug/ml, HBcAg 10 ug/ml
[5] = target: T2, truncated recombinant form of HBeAg containing nine residues of pre-core and the 150 first residues of HBcAg (hepatitis B virus, UniProt P03146 1-150); assay: EIA, support-bound peptide, HBeAg 10 ug/ml
T2 construct: domain: nine residues of pre-core;range 1-150; also called hepatitis B virus e antigen
T2 sequence (P03146 1-150): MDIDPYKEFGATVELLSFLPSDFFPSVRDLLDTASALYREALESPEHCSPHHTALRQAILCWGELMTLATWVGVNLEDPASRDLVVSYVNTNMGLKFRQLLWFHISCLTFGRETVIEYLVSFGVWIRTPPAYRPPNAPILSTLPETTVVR

[6] = target: T1, Full length recombinant HBcAg (rHBcAg) …; assay: competition EIA, HBcAg coated 1 ug/ml, peptide 200 ug/ml before mAb 4-2 (competitor); OD of bound mAb
[7] = target: T1, Full length recombinant HBcAg (rHBcAg) …; assay: EIA, support-bound peptide, HBcAg 2.5 ug/ml
[8] = target: T1, Full length recombinant HBcAg (rHBcAg) …; assay: EIA, support-bound peptide, HBcAg 5 ug/ml
[9] = target: T1, Full length recombinant HBcAg (rHBcAg) …; assay: competition EIA, HBcAg coated 5 ug/ml, peptide 25 ug/ml together with mAb 4-2 (competitor); OD of bound mAb
[10] = target: T1, Full length recombinant HBcAg (rHBcAg) …; assay: competition EIA, HBcAg coated 5 ug/ml, peptide 50 ug/ml together with mAb 4-2 (competitor); OD of bound mAb
[11] = target: T1, Full length recombinant HBcAg (rHBcAg) …; assay: EIA, peptide coated 25 ug/ml, HBcAg 10 ug/ml
[12] = target: T1, Full length recombinant HBcAg (rHBcAg) …; assay: EIA, peptide coated 3.125 ug/ml, HBcAg 10 ug/ml
[13] = target: T1, Full length recombinant HBcAg (rHBcAg) …; assay: EIA, support-bound peptide, HBcAg 1.25 ug/ml
[14] = target: T2, truncated recombinant form of HBeAg …; assay: EIA, support-bound peptide, HBeAg 5 ug/ml
[15] = target: T1, Full length recombinant HBcAg (rHBcAg) …; assay: competition EIA, HBcAg coated 1 ug/ml, peptide 50 ug/ml before mAb 4-2 (competitor); OD of bound mAb
[16] = target: T2, truncated recombinant form of HBeAg …; assay: EIA, support-bound peptide, HBeAg 2.5 ug/ml
[17] = target: T2, truncated recombinant form of HBeAg …; assay: EIA, support-bound peptide, HBeAg 20 ug/ml
[18] = target: T1, Full length recombinant HBcAg (rHBcAg) …; assay: competition EIA, HBcAg coated 5 ug/ml, peptide 200 ug/ml together with mAb 4-2 (competitor); OD of bound mAb
[19] = target: T1, Full length recombinant HBcAg (rHBcAg) …; assay: competition EIA, HBcAg coated 5 ug/ml, peptide 6.25 ug/ml together with mAb 4-2 (competitor); OD of bound mAb
[20] = target: T1, Full length recombinant HBcAg (rHBcAg) …; assay: competition EIA, HBcAg coated 1 ug/ml, peptide 25 ug/ml before mAb 4-2 (competitor); OD of bound mAb
[21] = target: T2, truncated recombinant form of HBeAg …; assay: EIA, support-bound peptide, HBeAg 0.67 ug/ml
[22] = target: T1, Full length recombinant HBcAg (rHBcAg) …; assay: competition EIA, HBcAg coated 5 ug/ml, peptide 100 ug/ml together with mAb 4-2 (competitor); OD of bound mAb

T1 sequence (P03146 whole entry, the tested form may be a part): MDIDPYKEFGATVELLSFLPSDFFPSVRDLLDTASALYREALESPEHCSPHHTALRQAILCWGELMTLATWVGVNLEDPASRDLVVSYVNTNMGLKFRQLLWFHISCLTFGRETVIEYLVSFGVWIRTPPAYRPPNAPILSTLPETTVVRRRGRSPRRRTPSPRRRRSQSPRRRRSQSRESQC

ISCRASQSVSTSSYSYMHWY [ISCRASQSVSTSSYSYMHWY (SEQ. ID. No. 17)] was tested, and the “OD at 490 nm” value [1] was 0.37 OD, the “OD at 490 nm” value [2] was 0.38 OD and the “OD at 490 nm” value [3] was 0.37 OD. For the same binder, the OD [4] was 0.569 OD, the OD [5] was 0.246 OD and the “OD at 490 nm” value [6] was 0.305 OD. The OD [7] was 0.252 OD, the OD [8] was 0.633 OD and the “OD at 490 nm” value [9] was 1.39 OD. The “OD at 490 nm” value [10] was 1.56 OD, the OD [11] was 0.636 OD and the OD [12] was 0.413 OD. For the same binder, the OD [13] was 0.117 OD, the OD [14] was 0.132 OD and the “OD at 490 nm” value [15] was 0.402 OD. For the same binder, the OD [16] was 0.102 OD, the OD [17] was 0.687 OD and the “OD at 490 nm” value [18] was 1.47 OD. The “OD at 490 nm” value [19] was 1.26 OD, the “OD at 490 nm” value [20] was 0.439 OD and the OD [21] was 0.046 OD. For the same binder, the “OD at 490 nm” value [22] was 1.46 OD.

In the case of VKPGASVKISCKASGYSFTG (also called Peptide # 25) [VKPGASVKISCKASGYSFTG (SEQ. ID. No. 28)], the “OD at 490 nm” value [1] is reported as 0.329 OD, the “OD at 490 nm” value [2] is reported as 0.339 OD and the “OD at 490 nm” value [3] is reported as 0.274 OD. For the same binder, the OD [4] was 0.766 OD, the OD [5] was 0.096 OD and the “OD at 490 nm” value [6] was 0.173 OD. For the same binder, the OD [7] was 0.159 OD, the OD [8] was 0.359 OD and the “OD at 490 nm” value [9] was 1.2 OD. For the same binder, the “OD at 490 nm” value [10] was 1.22 OD, the OD [11] was 0.569 OD and the OD [12] was 0.217 OD. The OD [13] was 0.058 OD, the OD [14] was 0.05 OD and the “OD at 490 nm” value [15] was 0.312 OD. The OD [16] was 0.115 OD, the OD [17] was 0.319 OD and the “OD at 490 nm” value [18] was 0.302 OD. The “OD at 490 nm” value [19] was 1.18 OD, the “OD at 490 nm” value [20] was 0.359 OD and the OD [21] was 0.022 OD. The “OD at 490 nm” value [22] was 0.91 OD.

For CKASGYSFTGYNMNWVKQSH (also called Peptide # 26) [CKASGYSFTGYNMNWVKQSH (SEQ. ID. No. 29)], the “OD at 490 nm” value [1] was 0.351 OD, the “OD at 490 nm” value [2] was 0.357 OD and the “OD at 490 nm” value [3] was 0.28 OD. The OD [4] was 0.198 OD, the OD [5] was 0.091 OD and the “OD at 490 nm” value [6] was 0.201 OD. The OD [7] was 0.101 OD, the OD [8] was 0.245 OD and the “OD at 490 nm” value [9] was 1.35 OD. For the same binder, the “OD at 490 nm” value [10] was 1.25 OD, the OD [11] was 0.181 OD and the OD [12] was 0.171 OD. The OD [13] was 0.038 OD, the OD [14] was 0.091 OD and the “OD at 490 nm” value [15] was 0.337 OD. For the same binder, the OD [16] was 0.063 OD, the OD [17] was 0.241 OD and the “OD at 490 nm” value [18] was 0.341 OD. For the same binder, the “OD at 490 nm” value [19] was 1.2 OD, the “OD at 490 nm” value [20] was 0.383 OD and the OD [21] was 0.027 OD. The “OD at 490 nm” value [22] was 0.947 OD.

In the case of VKPGASVKLSCKASGYIFTS (also called Peptide # 2; Pept. #2) [VKPGASVKLSCKASGYIFTS (SEQ. ID. No. 5)], the “OD at 490 nm” value [1] is reported as 0.336 OD, the “OD at 490 nm” value [2] is reported as 0.331 OD and the “OD at 490 nm” value [3] is reported as 0.083 OD. The OD [4] was 1.22 OD, the OD [5] was 0.222 OD and the “OD at 490 nm” value [6] was 0.078 OD. The OD [7] was 0.374 OD, the OD [8] was 0.989 OD and the “OD at 490 nm” value [9] was 0.698 OD. For the same binder, the “OD at 490 nm” value [10] was 0.395 OD, the OD [11] was 1.04 OD and the OD [12] was 0.333 OD. The OD [13] was 0.155 OD, the OD [14] was 0.096 OD and the “OD at 490 nm” value [15] was 0.188 OD. For the same binder, the OD [16] was 0.063 OD, the OD [17] was 0.751 OD and the “OD at 490 nm” value [18] was 0.139 OD. For the same binder, the “OD at 490 nm” value [19] was 0.867 OD, the “OD at 490 nm” value [20] was 0.341 OD and the OD [21] was 0.081 OD. For the same binder, the “OD at 490 nm” value [22] was 0.194 OD.

In the case of LAVSLGQRATISCRASQSVS [LAVSLGQRATISCRASQSVS (SEQ. ID. No. 16)], the “OD at 490 nm” value [1] is reported as 0.35 OD, the “OD at 490 nm” value [2] is reported as 0.365 OD and the “OD at 490 nm” value [3] is reported as 0.345 OD. For the same binder, the OD [4] was 0.434 OD, the OD [5] was 0.06 OD and the “OD at 490 nm” value [6] was 0.299 OD. For the same binder, the OD [7] was 0.195 OD, the OD [8] was 0.501 OD and the “OD at 490 nm” value [9] was 1.03 OD. For the same binder, the “OD at 490 nm” value [10] was 0.998 OD, the OD [11] was 0.276 OD and the OD [12] was 0.355 OD. The OD [13] was 0.079 OD, the OD [14] was 0.038 OD and the “OD at 490 nm” value [15] was 0.364 OD. The OD [16] was 0.03 OD, the OD [17] was 0.393 OD and the “OD at 490 nm” value [18] was 0.859 OD. The “OD at 490 nm” value [19] was 0.979 OD, the “OD at 490 nm” value [20] was 0.429 OD and the OD [21] was 0.024 OD. The “OD at 490 nm” value [22] was 0.891 OD.

Reference: patent publication US20020058247A1 (TRIPEP, published 2002)
